Experimental data published in the supplement of paper PMC9112550, “Optimization of the antimicrobial peptide Bac7 by deep mutational scanning” (BMC Biology, 2022).

tested on: Escherichia coli TOP10; test: shrunken log2 fold change of peptide-encoding DNA abundance (4.5 h post-induction vs induction); higher = less antimicrobial activity (less host growth inhibition); details: time post-induction: 4.5 h; library: site-saturation at positions 5, 18, 19, 20
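Also: peptides expressed intracellularly from a pBAD plasmid library in pooled LB shake-flask culture, induced with 0.3% L-arabinose, DNA abundance read by NGS, three biological replicates, DESeq2 with apeglm shrinkage.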

Sequence	shrunken log2 fold change
RRIRLRPPRLPRPRPRPEAQPRP	0.375
RRIRIRPPRLPRPRPRPLHVPRP	-0.135
RRIRSRPPRLPRPRPRPNIKPRP	-0.491
RRIRNRPPRLPRPRPRPYIWPRP	-0.588
RRIRIRPPRLPRPRPRPYWSPRP	0.0464
RRIRARPPRLPRPRPRPEIPPRP	0.3
RRIRWRPPRLPRPRPRPDHYPRP	-0.023
RRIRGRPPRLPRPRPRPTVEPRP	1.27
RRIRTRPPRLPRPRPRPLPWPRP	0.147
RRIRARPPRLPRPRPRPWWPPRP	0.292
RRIRMRPPRLPRPRPRPPPVPRP	1.65
RRIRGRPPRLPRPRPRPAICPRP	0.555
RRIRIRPPRLPRPRPRPKCVPRP	-0.328
RRIRRRPPRLPRPRPRPDPQPRP	1.23
RRIRKRPPRLPRPRPRPNEIPRP	0.118
RRIRWRPPRLPRPRPRPLHNPRP	-0.116
RRIRCRPPRLPRPRPRPEVHPRP	-0.328
RRIRHRPPRLPRPRPRPQHEPRP	-0.191
RRIRYRPPRLPRPRPRPHCEPRP	-0.00822
RRIRERPPRLPRPRPRPTVTPRP	0.0913
RRIRKRPPRLPRPRPRPWHQPRP	-0.0165
RRIRGRPPRLPRPRPRPAPYPRP	0.218
RRIRDRPPRLPRPRPRPEHRPRP	-0.01
RRIRIRPPRLPRPRPRPDIQPRP	-0.37
RRIRPRPPRLPRPRPRPPILPRP	-0.000706

Sequence	shrunken log2 fold change
RRIRTRPPRLPRPRPRPHQAPRP	-0.00677
RRIRWRPPRLPRPRPRPPWQPRP	0.289
RRIRCRPPRLPRPRPRPTHNPRP	0.124
RRIRFRPPRLPRPRPRPYSVPRP	0.062
RRIRLRPPRLPRPRPRPDWCPRP	0.0707
RRIRARPPRLPRPRPRPVADPRP	1.44
RRIRQRPPRLPRPRPRPPTNPRP	0.201
RRIRERPPRLPRPRPRPPLLPRP	-0.0533
RRIRFRPPRLPRPRPRPTFLPRP	-0.452
RRIRLRPPRLPRPRPRPTYTPRP	-0.317
RRIRQRPPRLPRPRPRPGEAPRP	0.271
RRIRARPPRLPRPRPRPREIPRP	0.865
RRIRQRPPRLPRPRPRPRHVPRP	-0.14
RRIRSRPPRLPRPRPRPQQEPRP	-0.0806
RRIRNRPPRLPRPRPRPIYLPRP	-0.376
RRIRYRPPRLPRPRPRPICHPRP	-0.305
RRIRHRPPRLPRPRPRPLTMPRP	-0.3
RRIRKRPPRLPRPRPRPRVFPRP	0.701
RRIRGRPPRLPRPRPRPDQGPRP	0.347
RRIRRRPPRLPRPRPRPYINPRP	-0.832
RRIRMRPPRLPRPRPRPEQTPRP	0.057
RRIRCRPPRLPRPRPRPQVDPRP	0.0243
RRIRDRPPRLPRPRPRPNVQPRP	-0.131
RRIRQRPPRLPRPRPRPCDCPRP	-0.0243
RRIRGRPPRLPRPRPRPGDGPRP	0.895

Sequence	shrunken log2 fold change
RRIRLRPPRLPRPRPRPNLWPRP	0.321
RRIRTRPPRLPRPRPRPVACPRP	-0.0699
RRIRKRPPRLPRPRPRPSSKPRP	-0.181
RRIRARPPRLPRPRPRPTWWPRP	0.568
RRIRRRPPRLPRPRPRPVNCPRP	0.148
RRIRRRPPRLPRPRPRPHLYPRP	0.176
RRIRKRPPRLPRPRPRPWKAPRP	0.49
RRIRGRPPRLPRPRPRPVSTPRP	0.691
RRIRRRPPRLPRPRPRPMQPPRP	0.0874
RRIRYRPPRLPRPRPRPRTYPRP	-0.71
RRIRMRPPRLPRPRPRPVQWPRP	0.155
RRIRSRPPRLPRPRPRPKYAPRP	-0.323
RRIRGRPPRLPRPRPRPTSFPRP	0.449
RRIRQRPPRLPRPRPRPNISPRP	-0.565
RRIRHRPPRLPRPRPRPSNMPRP	-1.48
RRIRWRPPRLPRPRPRPTFKPRP	0.132
RRIRMRPPRLPRPRPRPHPPPRP	1.26
RRIRCRPPRLPRPRPRPNMFPRP	-0.529
RRIRGRPPRLPRPRPRPFGQPRP	0.368
RRIRERPPRLPRPRPRPQMDPRP	0.178
RRIRGRPPRLPRPRPRPAYKPRP	-0.202
RRIRARPPRLPRPRPRPFLNPRP	-0.248
RRIRGRPPRLPRPRPRPAEFPRP	0.69
RRIRVRPPRLPRPRPRPCVRPRP	0.0421
RRIRWRPPRLPRPRPRPHPIPRP	0.062
